Article PMC5550427, “A family of archaea-like carboxylesterases preferentially expressed in the symbiotic phase of the mycorrhizal fungus Tuber melanosporum” (Scientific Reports, 2017)

Assays:
[1] = target: TmelEST1 (Tuber melanosporum); assay: SEC; Superdex 200 HR10/30, 200 µg purified protein per run, 25 mM Tris-HCl pH 7.5, 150 mM NaCl, non-denaturing; size unchanged on β-mercaptoethanol supplementation
TmelEST3 [2] = tested on: T1, TmelEST3; assay: pNP release at […] nm, Michaelis-Menten fit; type: biochemical, Tuber melanosporum; conditions: 25 mM Na-phosphate pH 7.0, 25 °C; Triton X-100 stabilized enzyme
T1 construct: signal peptide (first 18 residues) removed; N-terminal 6xHis cut with thrombin; E. coli BL21-CodonPlus(DE3)-RIL; ~35 kDa subunit, dimer (~65 kDa); salt-bridge residues Glu291, Arg304

TmelEST1 [3] = tested on: T2, TmelEST1; assay: pNP release at […] nm, Michaelis-Menten fit; type: biochemical, Tuber melanosporum; conditions: 25 mM Na-phosphate pH 7.0, 25 °C; Triton X-100 stabilized enzyme
T2 construct: signal peptide (first 18 residues) removed; N-terminal 6xHis cut with thrombin; E. coli BL21-CodonPlus(DE3)-RIL; ~35 kDa subunit, dimer (~65 kDa); salt-bridge residues Glu284, Arg297; Arg242

[4] = target: TmelEST3 (Tuber melanosporum); assay: SEC; Superdex 200 HR10/30, 200 µg purified protein per run, 25 mM Tris-HCl pH 7.5, 150 mM NaCl, non-denaturing; size unchanged on β-mercaptoethanol supplementation
TmelEST1 [5] = tested on: T2, TmelEST1; assay: pH-shift assay with phenol red, A560; type: biochemical, Tuber melanosporum; conditions: 2 mM Tris-HCl pH 8, 25 °C; 0.25-5 mM substrate; read-out: apparent Km
TmelEST3 [6] = tested on: T1, TmelEST3; assay: pH-shift assay with phenol red, A560; type: biochemical, Tuber melanosporum; conditions: 2 mM Tris-HCl pH 8, 25 °C; 1-30 mM substrate; preliminary data; read-out: estimated Km
[7] = target: TmelEST2 (Tuber melanosporum); assay: SEC; Superdex 200 HR10/30, 200 µg purified protein per run, 25 mM Tris-HCl pH 7.5, 150 mM NaCl, non-denaturing; size unchanged on β-mercaptoethanol supplementation
purified protein [8] = substrate: CCCCC(=O)Oc1ccc([N+](=O)[O-])cc1; assay: purified protein; type: biochemical, Tuber melanosporum; conditions: 25 mM Na-phosphate pH 7.0, 25 °C, Triton X-100 stabilized enzyme
purified protein [9] = substrate: CCCC(=O)Oc1ccc([N+](=O)[O-])cc1; assay: purified protein; type: biochemical, Tuber melanosporum; conditions: 25 mM Na-phosphate pH 7.0, 25 °C, Triton X-100 stabilized enzyme
[10] = substrate: COC(=O)c1ccccc1O; assay: pH-shift assay with phenol red, A560; type: biochemical, Tuber melanosporum; conditions: 2 mM Tris-HCl pH 8, 25 °C, 1-30 mM substrate, preliminary data

TmelEST1 (enzyme)
stoichiometry N [1]: 2

CCCC(=O)Oc1ccc([N+](=O)[O-])cc1 [C4, p-nitrophenyl-butyrate]
Km (TmelEST3 [2]): 109 ± 6 µM | Km (TmelEST1 [3]): 140 ± 14 µM

TmelEST3 (enzyme)
stoichiometry N [4]: 2

CCOC(=O)/C=C/c1ccc(O)c(OC)c1 [ethyl ferulate]
Km (TmelEST1 [5]): 880 µM

COC(=O)Cc1c[nH]c2ccccc12 [indole-3-acetic methyl ester]
Km (TmelEST3 [6]): ~3350 µM

CCCCC(=O)Oc1ccc([N+](=O)[O-])cc1 [C5, pNP-valerate]
Km (TmelEST3 [2]): 137 ± 20 µM | Km (TmelEST1 [3]): 160 ± 20 µM

TmelEST2 (enzyme)
stoichiometry N [7]: 2

B1: TmelEST2 (Tuber melanosporum Mel28) (protein)
chain: ETPAPSCPVTNVTTPQLDPITQAYADAISSRPSLFAFPLPEIRDGYQSNVSDPSTEFTTKILSLPVGPTGNVTAYLYKPVSGEREKGKDLLPVIAYFHGGGWVFGGPKSYRGLITNLIRESGAAVFFVDYTLTPKVAYPVPNEQCYAAVQWLLEHGEKLGVDPTNMGFGGDSAGGELSSSVSLLSIKRKTPLPKFQVLIYPATDLACESATFKEFPNGPGLTTDEIRFAASLFTPDPKSRLEDVASPGRASDEDLAKFPETLIVVAEVDPIRQQGEDFGRRLQKLGVRAAIIRVLGTIHGFASIDVLSEAPGAKATIELIGYKFKKALH
notes: signal peptide (first 18 residues) removed; N-terminal 6xHis cut with thrombin; E. coli BL21-CodonPlus(DE3)-RIL; ~35 kDa subunit, dimer (~65 kDa); structure residues 34-347; triad Ser190, Asp287, His317
Km (purified protein [8]): 44 ± 7 µM | Vmax (purified protein [8]): 4790 µmol/min/mg | kcat (purified protein [8]): 2870 s⁻¹ | kcat/Km (purified protein [8]): 6.53e+07 M⁻¹ s⁻¹ | Km (purified protein [9]): 49 ± 8 µM | Vmax (purified protein [9]): 3840 µmol/min/mg | kcat (purified protein [9]): 2300 s⁻¹ | kcat/Km (purified protein [9]): 4.7e+07 M⁻¹ s⁻¹ | Km [10]: 750 µM | kcat [10]: 1 s⁻¹
